# B1: CPEB3 Ribozyme (parent)
# chain: UAACAGGGGGCCACAGCAGAAGCGUUCACGUCGCAGCCCCUGUCAGAUUCUGGUGAAUCUGCGAAUUCUGCUGUAUAUCUC
# Variants of: B1
# Assay: self-cleavage, relative activity (ratio to wild type); higher = more cleavage; in vitro, sequencing
# In short: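 For each CPEB3 ribozyme variant, relative activity is its cleaved/total read fraction divided by the unmutated ribozyme's. Barcoded error-prone PCR libraries were transcribed by T7 RNA polymerase (5 hours, 37°C) and held in DNase I for 15 min before an EDTA stop, with cleavage occurring throughout. Template-switching reverse transcription and Illumina sequencing were used to read the RNAs. A 5-read minimum applied, and results are the mean of three batches.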
row,Variant,self-cleavage
1,UAACAGGGGGCCACAGCAGAAGCGUCCACGUCGCAGCCCUUGUCAGAUUCUGGUGAAUCUGCGAAUUCUGCUGUAUAUCUC,0.34
2,UAACAGGGGGCCACAGCAGAAGCGUCCACGUCGCAGCCCAUGUCAGAUUCUGGUGAAUCUGCGAAUUCUGCUGUAUAUCUC,0.26
3,UAACAGGGGGCCACAGCAGAAGCGUCUACGUCGCAGCCCCUGUCAGAUUCUGGUGAAUCUGCGAAUUCUGCUGUAUAUCUC,0.27
4,UAACAGGGGGCCACAGCAGAAGCGUCCACGUCGCAGCCCCUGUAAGAUUCUGGUGAAUCUGCGAAUUCUGCUGUAUAUCUC,0.09
5,UAACAGGGGGCCACAGCAGAAGCGUCCACGUCGCAGCCCCUGUUAGAUUCUGGUGAAUCUGCGAAUUCUGCUGUAUAUCUC,0.26
6,UAACAGGGGGCCACAGCAGAAGCGUCCACGUCGCAGCCCCUGUCAGAUUCUGGUGUAUCUGCGAAUUCUGCUGUAUAUCUC,0.28
7,UAACAGGGGGCCACAGCAGAAGCGUCCACGUCGCAGCCCCUGUCAGAUUCUGGUGGAUCUGCGAAUUCUGCUGUAUAUCUC,0.38
8,UAACAGGGGGCCACAGCAGAAGCGUCCACGUCGCAGCCCCUGUCAGAUUCUGGUGCAUCUGCGAAUUCUGCUGUAUAUCUC,0.31
9,UAACAGGGGGCCACAGCAGAAGCGUACACGUCGCAGCCCCUGUCAGAUUCUGGUGAAUCUGCGAAUUCUGCUGUAUAUCCC,1.02
10,UAACAGGGGGCCACAGCAGAAGCGUACACGUCGCAGCCCCUGUCAGAUUCUGGUGAAUCUGCGAAUUCUGCUGUAUAUCGC,1.06
11,UAACAGGGGGCCACAGCAGAAGCGUACACGUCGCAGCCCCUGUCAGAUUCUGGUGAAUCUGCGAAUUCUGCUGUAUAUCAC,0.96
12,UAACAGGGGGCCACAGCAGAAGCGUCCACGUCGCAGCCCCUGUCAGAUUCUGGUGACUCUGCGAAUUCUGCUGUAUAUCUC,0.28
13,UAACAGGGGGCCACAGCAGAAGCGUCCACGUCGCAGCCCCUGUCAGAUUCUGGUGAGUCUGCGAAUUCUGCUGUAUAUCUC,0.36
14,UAACAGGGGGCCACAGCAGAAGCGUCCACGUCGCAGCCCCUGUCAGAUUCUGGUGAUUCUGCGAAUUCUGCUGUAUAUCUC,0.31
15,UAACAGGGGGCCACAGCAGAAGCGUCCACGUCGCAGCCCCUGUCAGAUUCUGGUGAAUCUGCGGAUUCUGCUGUAUAUCUC,0.36
16,UAACAGGGGGCCACAGCAGAAGCGUCCACGUCGCAGCCCCUGUCAGAUUCUGGUGAAUCUGCGCAUUCUGCUGUAUAUCUC,0.31
17,UAACAGGGGGCCACAGCAGAAGCGUCCACGUCGCAGCCCCUGUCAGAUUCUGGUGAAUCUGCGUAUUCUGCUGUAUAUCUC,0.26

row,Variant,self-cleavage
1,UAACAGGGGGCCACAGCAGAAGCGUCCACGUCGCAGCCCCUGUCAGAUUCUGGUGAAUCUGCGAUUUCUGCUGUAUAUCUC,0.3
2,UAACAGGGGGCCACAGCAGAAGCGUCCACGUCGCAGCCCCUGUCAGAUUCUGGUGAAUCUGCGACUUCUGCUGUAUAUCUC,0.28
3,UAACAGGGGGCCACAGCAGAAGCGUCCACGUCGCAGCCCCUGUCAGAUUCUGGUGAAUCUGCGAGUUCUGCUGUAUAUCUC,0.3
4,UAACAGGGGGCCACAGCAGAAGCGUACACGUCGCAGCCCCUGUCAGAUUCUGGUGAAUCUGCGAAUUCUGCUGCAUAUCUC,1.16
5,UAACAGGGGGCCACAGCAGAAGCGUACACGUCGCAGCCCCUGUCAGAUUCUGGUGAAUCUGCGAAUUCUGCUGAAUAUCUC,1.31
6,UAACAGGGGGCCACAGCAGAAGCGUACACGUCGCAGCCCCUGUCAGAUUCUGGUGAAUCUGCGAAUUCUGCGGUAUAUCUC,0.83
7,UAACAGGGGGCCACAGCAGAAGCGUACACGUCGCAGCCCCUGUCAGAUUCUGGUGAAUCUGCGAAUUCUGCCGUAUAUCUC,1.13
8,UAACAGGGGGCCACAGCAGAAGCGUACACGUCGCAGCCCCUGUCAGAUUCUGGUGAAUCUGCGAAUUCUGCAGUAUAUCUC,0.75
9,UAACAGGGGGCCACAGCAGAAGCGUCCACGUCGCGGCCCCUGUCAGAUUCUGGUGAAUCUGCGAAUUCUGCUGUAUAUCUC,1.07
10,UAACAGGGGGCCACAGCAGAAGCGUCCACGUCGCCGCCCCUGUCAGAUUCUGGUGAAUCUGCGAAUUCUGCUGUAUAUCUC,0.32
11,UAACAGGGGGCCACAGCAGAAGCGUCCACGUCGCUGCCCCUGUCAGAUUCUGGUGAAUCUGCGAAUUCUGCUGUAUAUCUC,0.24
12,UAACAGGGGGCCACAGCAGAAGCGUCCACGUAGCAGCCCCUGUCAGAUUCUGGUGAAUCUGCGAAUUCUGCUGUAUAUCUC,0.22
13,UAACAGGGGGCCACAGCAGAAGCGUCCACGUUGCAGCCCCUGUCAGAUUCUGGUGAAUCUGCGAAUUCUGCUGUAUAUCUC,0.16
14,UAACAGGGGGCCACAGCAGAAGCGUCCACGUGGCAGCCCCUGUCAGAUUCUGGUGAAUCUGCGAAUUCUGCUGUAUAUCUC,0.11
15,UAACAGGGGGCCACAGCAGAAGCGUCCACGUCGCAGCUCCUGUCAGAUUCUGGUGAAUCUGCGAAUUCUGCUGUAUAUCUC,0.4
16,UAACAGGGGGCCACAGCAGAAGCGUCCACGUCGCAGCGCCUGUCAGAUUCUGGUGAAUCUGCGAAUUCUGCUGUAUAUCUC,0.09
17,UAACAGGGGGCCACAGCAGAAGCGUCCACGUCGCAGCACCUGUCAGAUUCUGGUGAAUCUGCGAAUUCUGCUGUAUAUCUC,0.19

# From the RNAGym collection of RNA variant scans (doi:10.1093/nar/gkz1192)
